One block for each substance: values may come before it.
Target: TERT (telomerase reverse transcriptase), catalytic subunit of telomerase (human) (UniProt O14746)
Test: cell-based or functional assay

Sequence of TERT (telomerase reverse transcriptase), catalytic subunit of telomerase (human) (O14746 whole entry): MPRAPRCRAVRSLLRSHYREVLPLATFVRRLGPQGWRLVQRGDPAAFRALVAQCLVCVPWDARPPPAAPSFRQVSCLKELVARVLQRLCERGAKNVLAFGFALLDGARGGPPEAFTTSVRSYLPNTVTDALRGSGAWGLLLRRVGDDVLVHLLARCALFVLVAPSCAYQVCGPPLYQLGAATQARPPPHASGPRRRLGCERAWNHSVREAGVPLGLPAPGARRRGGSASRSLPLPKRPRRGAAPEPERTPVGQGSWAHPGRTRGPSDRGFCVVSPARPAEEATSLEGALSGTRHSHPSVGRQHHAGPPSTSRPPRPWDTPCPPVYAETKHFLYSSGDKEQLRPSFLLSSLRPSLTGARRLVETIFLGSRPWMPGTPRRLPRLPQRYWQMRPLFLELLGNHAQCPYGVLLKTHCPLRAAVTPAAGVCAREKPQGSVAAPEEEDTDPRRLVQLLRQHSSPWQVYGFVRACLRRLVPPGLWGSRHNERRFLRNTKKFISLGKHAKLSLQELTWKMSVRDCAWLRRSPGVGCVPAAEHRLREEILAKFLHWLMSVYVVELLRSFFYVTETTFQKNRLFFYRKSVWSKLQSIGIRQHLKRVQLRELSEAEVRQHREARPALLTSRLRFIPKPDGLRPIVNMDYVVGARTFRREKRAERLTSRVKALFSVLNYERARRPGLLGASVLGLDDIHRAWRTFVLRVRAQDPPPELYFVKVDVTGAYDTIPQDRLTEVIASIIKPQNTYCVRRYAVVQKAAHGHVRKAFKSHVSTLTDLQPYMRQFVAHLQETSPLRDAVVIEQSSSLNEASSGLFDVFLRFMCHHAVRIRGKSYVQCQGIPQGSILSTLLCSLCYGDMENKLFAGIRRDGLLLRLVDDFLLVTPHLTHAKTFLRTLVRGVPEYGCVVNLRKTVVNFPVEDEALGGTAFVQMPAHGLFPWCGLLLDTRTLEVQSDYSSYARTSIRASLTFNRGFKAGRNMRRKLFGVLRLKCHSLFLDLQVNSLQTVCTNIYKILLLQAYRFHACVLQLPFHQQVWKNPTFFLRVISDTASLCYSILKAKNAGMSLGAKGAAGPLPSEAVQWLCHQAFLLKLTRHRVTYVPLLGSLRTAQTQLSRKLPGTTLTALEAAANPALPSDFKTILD

intracellular telomerase activity (TRAP method) in HEK293T cells: 0.7 fold
Substance: N-terminal HA-tagged inactive MAPKAPK3 (T201A/T313A) (from UniProt Q16644 1-382) (enzyme)

telomerase activity (TRAP method) in dephosphorylated HEK293 cell nuclear extract after phosphorylation reaction: 1.5 fold
Substance: GST fusion active MAPKAPK3 (T201E/T313E) (from UniProt Q16644 1-382) (enzyme)

intracellular telomerase activity (TRAP method) in HEK293T cells against the negative control vector: 1.4 fold
Substance: N-terminal HA-tagged active MAPKAPK3 (T201E/T313E) (from UniProt Q16644 1-382) (enzyme)

Source: patent US20070105796A1
